Holding throughout (format): cell-based
The subject of one test is AKT. Nature of the test: Western blotting, phosphorylation of AKT in mouse iPS cells. The settings on record: CCL2 overexpressed, relative to negative control. The protocol:
(§1) The mouse iPS cells transfected with the Ccl2 expression vector were cultured for 24 hours in the same manner as in Example 1. After the culture, the mouse iPS cells were washed with PBS, and then were suspended in 100 μl of a mammalian m-PER lysis buffer. The suspension was passed through a 26-gauge needle for 10 minutes to homogenize the cells. Then, the suspension was centrifuged at 13,000 rpm and 4° C. for 5 minutes, and the supernatant was collected. The protein concentration in the supernatant was measured using a Pierce (registered trademark) BCA Protein assay (trade name, Thermo Scientific). Next, the supernatant was subjected to Western blotting to detect a target protein. Specifically, first, the supernatant (total protein: 10 μg) was applied to a Novex Gel electrophoresis system with 4%-12% Bis-Tris gels, and was blotted on a nitrocellulose membrane. Then, the membrane was incubated with a primary antibody against the target protein. After washing the membrane, the membrane was incubated with a labeled secondary antibody labeled with horseradish peroxidase, and a color-developing reaction was caused using a coloring reagent (trade name: ECL plus, GE Healthcare). Then, luminescence on the membrane was detected using a Fuji LAS-3000 luminescent image analyzer. […]

In the next test the test system is mouse iPS cells. In words: quantitative RT-PCR of undifferentiated marker genes, recombinant CCL2 added to mouse iPS cells under feeder free conditions. The method, then: A PrimeScript RT-PCR Kit (trade name, TAKARA BIO INC.), an ABI 7500 Fast real time PCR system (trade name, Applied BioSystems), and a SYBR (registered trademark) Premix Ex Taq (trade name, TAKARA BIO INC.) were used in accordance with their protocols. PCR was carried out by conducting 40 cycles of treatment with a treatment at 94° C. for 5 second and at 62.5° C. for 20 seconds as 1 cycle. The expression level of each gene was calculated by normalizing the relative amount of mRNA in the gene to Gapdh mRNA according to the 2^−ΔΔ^CT method (Thomse R, Solvsten C A, Linnet T E, et al., Analysis of qPCR data by converting exponentially related Ct values into linearly related XO values. J Bioinform Comput Biol 2010: 8: 885-900.).
The medium of a negative control used was the above-described DMEM containing the above-described LIF. […]
Furthermore, after the culture of the mouse iPS cells, the expression level of the Tbx3 gene was determined in the same manner as in the item (1) of Example 1. Then, the fold change in expression level relative to the negative control was calculated. […]
The mouse iPS cells cultured under the feeder free conditions were cultured in the medium of the example and the medium of the comparative example, respectively. […] 24 hours after the culture, the expression levels of the undifferentiated marker genes were determined in the same manner as in the item (1) of Example 1. […]

Another test concerns STAT3. Nature of the test: Western blotting, phosphorylation of STAT3 in human iPS cells. Particulars: feeder conditions, 6 days, negative control (bFGF) = 1. The method, then: The human iPS cells were cultured under feeder conditions in the same manner as in Example 8, and the feeder cells were removed 6 days after the start of the culture. Then, in the same manner as in Example 3, the cultured human iPS cells were washed, suspended, homogenized, and centrifuged to collect the supernatant as a cell extract. Thereafter, a target protein was detected by Western blotting in the same manner as in Example 3, except that the above supernatant was used. Furthermore, as a negative control, the target protein was detected by carrying out the same procedures except that bFGF was added instead of the CCL2.
Then, the ratio of the phosphorylated STAT3 to the non-phosphorylated STAT3 (pSTAT3/STAT3) was determined. Assuming that the value of pSTAT3/STAT3 in the negative control was “1”, the relative value was calculated.

A further test has as its system ERK1/2. Nature of the test: Western blotting, phosphorylation of ERK1/2 in mouse iPS cells. Particulars: CCL2 overexpressed, relative to negative control. The method, then: as §1
A general note: Immunoblotting shows a protein as a band on a membrane.

B1: CCL2: mouse recombinant CCL2 (MCP-1, #479-JE-010, R&D Systems); in Examples 1, 3, 4(1), 5 mouse CCL2 (SEQ ID NO: 3) overexpressed from Ccl2 expression vector (protein, listed as Mus musculus)
chain: MQVPVMLLGLLFTVAGWSIHVLAQPDAVNAPLTCCYSFTSKMIPMSRLESYKRITSSRCPKEAVVFVTKLKREVCADPKKEWVQTYIKNLDRNQMRSEPTTLFKTASALRSSAPLNVKLTRKSEANASTTFSTTTSSTSVGVTSVTVN
Take B1: in the test on AKT, the “phosphorylation of AKT (pAKT/AKT)” value was “not promoted”. In the test on mouse iPS cells (recombinant CCL2 500 ng/ml added to PI3K inhibitor 5 ng/ml + LIF 25 units/ml), the “expression level of the Tbx3 gene” value was “further increase”. Also, in the test on mouse iPS cells (recombinant CCL2 2500 ng/ml, no LIF, feeder free, 24 hours, relative to LIF 1000 units/ml), the “expression of each undifferentiated marker gene” value is reported as “increased markedly”. Further, the “ratio of phosphorylated STAT3 to non-phosphorylated STAT3 (pSTAT3/STAT3), relative value” in the test with STAT3 is listed as “about 7.5 fold”. In addition, in the test with ERK1/2, the “phosphorylation of ERK1/2 (pERK1/2/ERK1/2)” value was “not promoted”.

Source of the values: patent US20140017790A1, “CONTROL AGENT FOR CONTROLLING UNDIFFERENTIATED STATE AND USE THEREOF” (RIKEN, priority 2011, published 2014).
